Experimental data as given in patent US20220056119A1.

Target: activin Type II receptors (ActRIIA and ActRIIB) on A204/CAGAx12-Luc cells
Experiment: cell-based or functional assay

activation of the A204/CAGAx12-Luc cell line (Smad 2/3-luciferase reporter), EC50 [nM]	Binder
0.099	Activin A (homodimer of two inhibin betaA subunits), P08476 311-426 (ligand) GLECDGKVNICCKKQFFVSFKDIGWNDWIIAPSGYHANYCEGECPSHIAGTSGSSLSFHSTVINHYRMRGHSPFANLKSCCVPTKLRPMSMLYYDDGQNIIKKDIQNMIVEECGCS
0.047	Activin B (homodimer of two inhibin betaB subunits), P09529 293-407 (ligand) GLECDGRTNLCCRQQFFIDFRLIGWNDWIIAPTSYYGNYCEGSCPAYLAGVPGSASSFHTAVVNQYRMRGLNPGTVNSCCIPTKLSTMSMLYFDDEYNIVKRDVPNMIVEECGCA
